In PMC4254802:
Blank lines part the entries; values can stand above or below the substance they belong to.

How the values were obtained:
Test in all cases: cross-linking
[1] = biological target: TACE-B/ADAM10cyto (truncated human TACE with the cytoplasmic domain of ADAM10), Flag-tagged (human) (UniProt O14672)
[2] = biological target: endogenous ADAM10 of Cα cells (Chinese hamster (endogenous in Cα/CHO cells))
[3] = biological target: endogenous TACE of Cα cells (CHO cells that express TGF-α) (Chinese hamster (endogenous in Cα/CHO cells))

- stoichiometry N [1]: 2
Substance: TACE-B/ADAM10cyto (truncated human TACE with the cytoplasmic domain of ADAM10), Flag-tagged (from UniProt O14672 694-748)

- stoichiometry N [2]: 2
Substance: endogenous ADAM10 of Cα cells (enzyme)

- stoichiometry N [3]: 2
Substance: endogenous TACE of Cα cells (CHO cells that express TGF-α) (enzyme)
